Laboratory results from the nanobody polyreactivity screen of Harvey et al. (2022).

Assay: yeast display, Sf9 membrane polyspecificity reagent, FACS + sequencing; frameworks hold sequencing errors
In short: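 After 36–48 hours of galactose induction, yeast (Saccharomyces cerevisiae BJ5465) displaying a synthetic nanobody library were stained at 4 °C for 1 hour with 10% biotinylated, detergent-solubilized Sf9 membrane reagent. Streptavidin microbeads enriched the stained cells before FACS sorting into low and high (top ~1%) gates on anti-HA and streptavidin fluorescence. Each clone's polyreactivity label reflects its gate of origin.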

Sequence	polyreactivity (PSR sort gate)
QVQLVESGGGLVQAGGSLRLSCAASGLTFRDNAMGWYRQAPGKERELVATINSGGSTDYADSVKGRFTISRDNAKNTVYLQMNILKPEDTAVYYCAVYREYYDRGWYSIFYWYDYWGQGTQVTVSS	low polyreactivity
QVQLVESGGGLVQAGGSLRLSCAASGSIFGGYAMGGYRQAPGKERELFARITDRGGSTDYADSVKGRFTISRDNAKNTVYLQMNRLKPEDTAVYYCAKRGDRYEKRPRDYWGQGTQVTVSS	low polyreactivity
QVQLVESGGGLVQAGGSLRLSCAATGRTFSTYAMGWYRQAPGKERELVAAISSGGGRTYYADSVKGRFTISRDNAKNTVYLQMNSLKPEDTAVYYCAADFLWYIYIIGTSLEFDYWGQGTQVTVSS	low polyreactivity
QVQLVESGGGLVQAGGSLRLSCAASGSNIGWNTMGWYRQAPGKERELVAAITSGGRTYYADSVKGRFTISRDNAKNTVYLQINSLKPEDTAVYYCKAVVRHTYRRFDYWGQGTQVTVSS	high polyreactivity
QVQHVESGGGLVQAGGSLRLSCAASGSIFGRYAMGWYRQAPGKERELVAAIRTDGSTYYADSVKGRFTISRDNAKNTVYLQMNSLKPEDTAVYYCAAVSKFQFHYIQYADRQYGYWGQGTQVTVSS	low polyreactivity
QVQLLESGGGLVQAGGSLRLSCAASGYNFGNYAMGWYRQAPGKERELVAAITSRGGRTYYADSVKGRFTISRDNAKNSFYLQMNSLIPVDTGVYYCYRAVTTKDGYWGQCTQVTVSS	high polyreactivity
QVQLVESGGGLVHAGGSLRLSCAASGITFYDYDMGWYRQAPGKERELVATITSGGDTNYADSVKGRITISRDNAKNTVYLQMNSLKPEDTAVYYCAAGSFFRDSYARIYRWFYYWGQGTQVTVSS	low polyreactivity
QVQRVESGGGLVQAGGSLRLSCAASGSIFSYYARGLYRQAPGNESELVAVINSGSTNYAASVKGRFTISRDNAKNTVYIHMNSLKPEDTAVYYCAADSLLYLLEQYTTAPYDYWAQGTQVTVSS	low polyreactivity
QVQLVESGGGLVQAGGSLRLSCAASGGTFAWYAMGWYRQAPGKERELVAAITSDGITKYADSVKGRFTISRDNAKNTVYLQMNSLKPEDTAVYYCAKDDGPSDWIGRWFDYWGQGTQVTVSS	low polyreactivity
QVQLVDSGGGLVQAGGSLRLSCAASGRTFAWNAMGWYRQAPGKERELVAVITSGGSTNYADSVKGRFTISRDNAKNTVYLQMNSLKPEDTAVYYCATGDGPSLFDYWGQGTQVTVSS	low polyreactivity
QVQLVESGGGLVKAGGSLRLSCAASGSTNDRYAMGLYRQAPGKEREFVAAITKRGGSTYYADSVKGRFTISRDNAKITVYLQMNSLKPEDTAVYYCGARYGRGSAYTEYEYWGQGTQVTVSS	high polyreactivity
QVQLQESGGGLVQAGGTLRLSCAASGSFSADEDMGWYRQEQGKEREFVAGISVGGNTNYADSVKGRFTISRENAKNTVYLQINSLKPEDTAVYYCAVLQDVYDALDYWAQGTQVTVSS	high polyreactivity
QVQLVESGGGLVQAGGSLRLSCAASGFTFGVYAMGWYRQAPGKERELVAAITATGGSTYYADSVKGRFTISRDNAKNTVYLQMNSLKPEDTAVYYCAADLDGTLSVYDYHTTGDDYWGQGTQVTVSS	low polyreactivity
QVQLVESGGCLVQAGGSLRLTCAASGSTFGYEGRGWYRQAPGKERELVASIDSRCDSTYADSVKGRFTISRDNAKNTVYLQMNSLKPEDTAVYYCAADSWYTWFDSWGQGTQVTVSS	low polyreactivity
QVQLVESGGGLVQAGGSLRLSCAASGLTFLINAMGWYRQAPGKERELVAAITSSGGSTSYADSVKGRFTISRDNAKYTVYLQMNSLKPEDTAVYYCAADLNAYPQRAYDYWGQGTQVTVSS	low polyreactivity
QVQLVESGGGLVQAGGSLRLSCAASGSTFSDNAMGWYRQAPGKERELVATINASGGSTYYADSVKGRFTITRDNAKNTVYLQMNSLKPEDTAVYYCAADVYTRFWRVYRFDYWGQGTQVTVSS	low polyreactivity
QVQLVESGGGLVQAGGSLRLSCAASGSIFPSYAMGWYRQAPGKERELVATIGRGGTTNYADSVKGRFTISRDNAKNTVYLQMNSLKPEDTAVYYCNAERIWRYKYGYDYWGQGTQVTVSS	high polyreactivity
QVQLVESGGGLVQAGGSLRLSCAASGRIFTGNVMRWYRQAPGKERELVAAISYGGGSTNYSDSVKGRFTISRDNAKNTVYLQMNSLKQEDTAVYYCAACIKRYLSYYTRYGYWGQGTQVTVSS	high polyreactivity
QVQLVESGGGLVQAGGSLRLSCAASGSIYVYYAKGWYRQAPGKERYLVAAINTSGGSTYYADSVKGRFTISRDNAKNTVYLQMNSLKPEDTAVYYCAATPFASPRLHSFVVSYRYYYWGQGTQVTVSS	low polyreactivity
QVQLVESGGGLVQAGGSLRLSCAASGRTFWTNAMGWYRQAPGKERELVAAISWTTGSTNYADSVKGRFTISRDNAKNTVYLQMNSLKPEDTAVYYWAADSQYGWPEYEYDYWGQGTQVTVSS	low polyreactivity

Sequence	polyreactivity (PSR sort gate)
QVQLVVSGGGLVQAGGSLRLICAASGFSFFFYALGWYSQAPGKDRELHATINWSGASTYYADSVMGRFTISRDNATNTVYLQMNSLKPEDTAVYYCAKDGHYPLVYLAFDYWGQGTQVTGSS	low polyreactivity
QVQLVESGGGLVQAGGSLRLSCAASGSTFGYYAMGWYRQAPGKERELVAAISYRSGSTYYADSVNGRFTISRDNAKNTVYLQMNSLKPEDTAVYYCAPVIQRQQRYEYWGQGTQVTVSS	high polyreactivity
QVQLVESGGGLVQAGGSLRLSCAASGITLGAYAMGWYRQAPGKERELVAAISRSGGSTYYADSVKGRFTISRDNAKNTVYLQMNSLKPEDTAVYYCNAPRFVSYDYWGQGTQVTVSS	high polyreactivity
QVQLVESGGGLVQAGGSLRLSCAASGFIFGTNAMGWYRQAPGKERELVASISSTGGSTYYADSVKGRFTISRDNAKNTVYLQMNSLKPEDTAVYYCAADPYPEYIRYLPGVDYWGQGSQVTVSS	low polyreactivity
QVQLVESGGGIVQAGGSLRLSCAASGRTFRWNVMGCYRPAPGKERELVATISRRSGSTNYADSVKGRFTISRDNAKNTVYLQINSLKPEDTALYYCAVVIVRALVYSGDYWGQGTQVSVSS	low polyreactivity
QVQLVESGGGLVQAGGSLRLSCAASGIILTYYAMGWYRPAAGHERELVARISSSGGRTYYADSVKARFTISRDNAKNTLYLQMNSQKPEETAVYYCAAAIVSSGRNDYWGHGTQVTVSS	high polyreactivity
QVQLVESGGGLVQAGGRLRLSCAASGFTFYYYTMGWYRQAPGKEREVVAAITWRGGSTNYADSVKGRFTISRDNAKNTVYLQMNSLKPEDTAVYYCAAVTYWFWPGMDYWGQGTQVTVSS	low polyreactivity
QVQLQESGGGLMQAGGSQRLSCAASGSISYYSDMGWYPQAPGKEREFVAGIGYGTTTNYADSVKGRFTTSRDNAKNTVYMQMISMKPEDTAVYYCAAYQGNGYEFYYWGQGTQVTVRS	low polyreactivity
PVQLVESGGGLVQAGGSLRLSCAASGITIYYYGMGWYRQPPGKERELVAAITTGVNTNYADSVKGRFTISRDNAKITVYLQMNSLKPEDTAVYYCAAEYRIPYFFTYGYWGQGTQVTVSS	high polyreactivity
QVQLVESGGGVVQARGSLRLSCAASGSPFWYHDMGWYRQAPGKERELVASISWSGGDTYYADSVKGRFTISRDNAKNTVYLQMNSLKTVDTAVYYCAAATLVSFWLDYWGEGTQVTVSS	low polyreactivity
QVQLVESGGGLVQAGGSLRLSCAASGRTFYYYAMGWYRQAPGKERELVARIRSGGSTNYADSVKGRFTISRDNAKNTVYLQMNSLKPEDTAVYYCNSMGAKGYVKGFDYWGQGTQVTVSS	low polyreactivity
QVQLVESGGGLVQAGGSLRLSCAASGSIFWTNAMGWYRQAPGKERELVAAIRVSTGSTYYADSVKGRFTISRDNAKNTVYLQMNSLKPEDTAVYYCAARTYGWGYDYWGQGTQVTVSS	low polyreactivity
QVQLVESGVGLVQAGGSLRLSCAASGSTFVKYVIGWYRQAPGKERELVAAISRSGGSTYYADSVKGRFTISRDNAKNTDYLQMNSLKPDDTAVYYCAARLFYRLDYRGGYYYWGQGTQVTVSS	high polyreactivity
QVQLVESGGGLVQAGGGLRLSCAACGSIFVYYVMGWYRQAPGKERELVAAINSDGDGTYYADSVKGRFTISRDNAKNTVYLQMNSLKPEDTAVYYCNALNPKSYDYWGQGTQVTVSS	low polyreactivity
QVQLVESGGGLVQAGGSLRLSCAASGSTFTPNVMGWNRQAPGKEREYVAAINSSGGSTFYADSVKGRFTISRDTAKYTVYLQMNSLKPEDTAFYYCAASWHTPTFYDEYYYWGQGTQVTVSS	low polyreactivity
QVQLVESGAGLVQAGGSLRLSCAASGSTFRPNVMGWSRQAPGKERELVAAITYSGRSTYYADSVKGRFTISRDNAKNTVYLQMNTLKPEDTAVYYCAARTWLRYCYWGQGTQVTVSS	high polyreactivity
QVQLVESGGGLVQAGGSLRLSCAASGRIFTHNAMGWYRQAPGKERELVAAITSGGRTTYADSVKGRFTFSRDNAKNTVYLQMIRLKPEDTAVYYCNADTGLGSLDFDNRDYWGQGTQVTVSS	low polyreactivity
QVQLVESGRGLVQAGGSLRLSCAASGSTFAGYVMGWYRQAPGKERELVAAISGRGGNTYYADSVKGRFTISRDNAKNTVYIQINSLKPADTAVYYCAANLSRRYGYWGQGTQVTVSS	high polyreactivity
QVQLVESGGGLVQAGGSLRLSCAASGSIVRSYAMGWYRQAPGKERELVAAITGGANTYYADSVKGRFTISRDNAKNTVYLQMNSLKPEDTAVYYCAASPIQTGSIFSTFYSYRSYYWGQGTQVTVSS	high polyreactivity
QVQLVESGGGLVQAGGSLRLSCAASGFTFGVYAMGWYRQAPGKERELVAAITRSGGSTYYADSVKGRFTISRDNAKNTVYLQMNSLKPEDTAVYYCASRARDHYGYWGQGTQVTVSS	high polyreactivity
